From patent publication US20250376536A1 (Bristol-Myers Squibb, published 2025)

T1: mouse CD40 on cells (mouse, UniProt P27512 20-289)
T1 construct: whole, on cells; also called Mouse CD40-positive macrophage; Mouse CD40-positive B cell
T1 sequence (looked up): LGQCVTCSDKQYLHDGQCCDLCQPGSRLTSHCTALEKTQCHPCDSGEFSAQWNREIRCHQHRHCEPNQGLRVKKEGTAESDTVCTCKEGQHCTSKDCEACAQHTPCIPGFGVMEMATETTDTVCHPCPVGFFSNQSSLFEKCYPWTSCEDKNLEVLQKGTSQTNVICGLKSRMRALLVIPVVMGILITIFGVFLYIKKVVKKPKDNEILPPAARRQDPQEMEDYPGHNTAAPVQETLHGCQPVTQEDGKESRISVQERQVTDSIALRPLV

T2: mouse FAP protein (mouse, UniProt P97321 26-761)
T2 sequence (looked up): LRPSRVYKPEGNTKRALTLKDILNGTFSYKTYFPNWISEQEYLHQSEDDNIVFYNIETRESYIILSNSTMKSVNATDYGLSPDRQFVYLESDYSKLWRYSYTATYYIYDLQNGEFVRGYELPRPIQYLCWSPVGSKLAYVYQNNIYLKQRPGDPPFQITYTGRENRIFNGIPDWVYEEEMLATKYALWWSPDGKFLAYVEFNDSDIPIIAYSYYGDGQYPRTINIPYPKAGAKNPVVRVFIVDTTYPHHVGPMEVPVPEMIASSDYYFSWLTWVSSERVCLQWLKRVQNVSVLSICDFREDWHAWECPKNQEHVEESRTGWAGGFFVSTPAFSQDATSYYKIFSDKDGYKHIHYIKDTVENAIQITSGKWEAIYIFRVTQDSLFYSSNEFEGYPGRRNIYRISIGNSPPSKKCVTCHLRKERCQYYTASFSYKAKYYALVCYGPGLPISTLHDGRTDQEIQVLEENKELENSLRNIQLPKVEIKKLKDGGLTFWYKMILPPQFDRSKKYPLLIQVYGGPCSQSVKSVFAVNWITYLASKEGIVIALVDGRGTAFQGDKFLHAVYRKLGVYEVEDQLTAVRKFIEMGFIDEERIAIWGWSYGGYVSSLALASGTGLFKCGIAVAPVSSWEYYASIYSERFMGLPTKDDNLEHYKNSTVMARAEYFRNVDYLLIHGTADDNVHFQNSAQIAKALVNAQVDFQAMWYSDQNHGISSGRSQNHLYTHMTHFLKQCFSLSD

T3: mouse CD40 protein (mouse, UniProt P27512 20-193, limits assumed)
T3 sequence (looked up): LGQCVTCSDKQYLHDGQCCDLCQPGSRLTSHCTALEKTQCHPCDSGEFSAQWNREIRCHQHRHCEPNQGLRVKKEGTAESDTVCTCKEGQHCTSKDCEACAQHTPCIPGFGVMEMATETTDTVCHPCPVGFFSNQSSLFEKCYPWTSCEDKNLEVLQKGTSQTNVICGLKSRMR

T4: mouse FAP on HEK cells (mouse, UniProt P97321 1-761)
T4 construct: whole, on cells; also called Mouse FAP-positive HEK cells; mouse FAP-expressing HEK cells
T4 sequence (looked up): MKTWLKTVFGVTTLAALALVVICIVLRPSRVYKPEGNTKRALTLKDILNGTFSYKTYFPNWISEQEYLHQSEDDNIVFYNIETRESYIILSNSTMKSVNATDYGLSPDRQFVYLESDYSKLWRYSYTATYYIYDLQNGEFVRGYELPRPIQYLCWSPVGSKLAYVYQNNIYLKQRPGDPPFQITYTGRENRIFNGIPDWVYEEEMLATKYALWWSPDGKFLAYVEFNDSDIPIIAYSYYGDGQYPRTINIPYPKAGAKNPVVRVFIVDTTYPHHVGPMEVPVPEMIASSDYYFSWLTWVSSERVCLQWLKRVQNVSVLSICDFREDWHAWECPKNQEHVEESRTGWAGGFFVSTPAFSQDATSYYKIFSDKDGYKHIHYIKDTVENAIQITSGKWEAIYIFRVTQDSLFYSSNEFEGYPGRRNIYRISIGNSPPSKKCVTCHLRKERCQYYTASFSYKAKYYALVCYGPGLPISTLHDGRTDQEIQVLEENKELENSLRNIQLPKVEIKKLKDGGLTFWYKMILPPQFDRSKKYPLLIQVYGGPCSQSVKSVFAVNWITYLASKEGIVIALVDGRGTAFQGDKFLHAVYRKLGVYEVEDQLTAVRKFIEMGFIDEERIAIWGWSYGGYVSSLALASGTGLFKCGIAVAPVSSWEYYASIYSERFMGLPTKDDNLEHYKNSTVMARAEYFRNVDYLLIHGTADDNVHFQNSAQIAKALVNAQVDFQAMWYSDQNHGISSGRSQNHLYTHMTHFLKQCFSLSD

T5: human FAP protein (human, UniProt Q12884 26-760)
T5 sequence: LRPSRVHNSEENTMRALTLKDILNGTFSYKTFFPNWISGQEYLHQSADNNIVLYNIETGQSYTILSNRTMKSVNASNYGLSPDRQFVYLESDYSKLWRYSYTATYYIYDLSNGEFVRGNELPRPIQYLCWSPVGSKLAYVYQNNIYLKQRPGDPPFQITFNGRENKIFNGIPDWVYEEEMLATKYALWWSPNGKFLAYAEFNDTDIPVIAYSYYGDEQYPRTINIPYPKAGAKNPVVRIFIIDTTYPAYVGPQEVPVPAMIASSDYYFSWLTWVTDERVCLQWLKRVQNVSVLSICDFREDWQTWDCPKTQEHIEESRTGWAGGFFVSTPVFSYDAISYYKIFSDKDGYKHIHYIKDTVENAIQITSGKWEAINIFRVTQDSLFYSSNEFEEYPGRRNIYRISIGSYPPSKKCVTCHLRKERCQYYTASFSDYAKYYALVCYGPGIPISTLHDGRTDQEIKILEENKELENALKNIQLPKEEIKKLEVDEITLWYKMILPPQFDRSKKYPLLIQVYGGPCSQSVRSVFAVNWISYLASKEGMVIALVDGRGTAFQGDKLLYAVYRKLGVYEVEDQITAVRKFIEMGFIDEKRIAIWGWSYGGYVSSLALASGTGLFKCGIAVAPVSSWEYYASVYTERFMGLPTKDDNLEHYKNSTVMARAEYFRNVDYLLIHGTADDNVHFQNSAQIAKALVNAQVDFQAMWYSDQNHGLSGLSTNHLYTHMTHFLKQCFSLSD

T6: soluble FAP (human, UniProt Q12884 26-760, limits assumed)
T6 sequence: T5 sequence

T7: human FAP on cells (human, UniProt Q12884 1-760)
T7 sequence: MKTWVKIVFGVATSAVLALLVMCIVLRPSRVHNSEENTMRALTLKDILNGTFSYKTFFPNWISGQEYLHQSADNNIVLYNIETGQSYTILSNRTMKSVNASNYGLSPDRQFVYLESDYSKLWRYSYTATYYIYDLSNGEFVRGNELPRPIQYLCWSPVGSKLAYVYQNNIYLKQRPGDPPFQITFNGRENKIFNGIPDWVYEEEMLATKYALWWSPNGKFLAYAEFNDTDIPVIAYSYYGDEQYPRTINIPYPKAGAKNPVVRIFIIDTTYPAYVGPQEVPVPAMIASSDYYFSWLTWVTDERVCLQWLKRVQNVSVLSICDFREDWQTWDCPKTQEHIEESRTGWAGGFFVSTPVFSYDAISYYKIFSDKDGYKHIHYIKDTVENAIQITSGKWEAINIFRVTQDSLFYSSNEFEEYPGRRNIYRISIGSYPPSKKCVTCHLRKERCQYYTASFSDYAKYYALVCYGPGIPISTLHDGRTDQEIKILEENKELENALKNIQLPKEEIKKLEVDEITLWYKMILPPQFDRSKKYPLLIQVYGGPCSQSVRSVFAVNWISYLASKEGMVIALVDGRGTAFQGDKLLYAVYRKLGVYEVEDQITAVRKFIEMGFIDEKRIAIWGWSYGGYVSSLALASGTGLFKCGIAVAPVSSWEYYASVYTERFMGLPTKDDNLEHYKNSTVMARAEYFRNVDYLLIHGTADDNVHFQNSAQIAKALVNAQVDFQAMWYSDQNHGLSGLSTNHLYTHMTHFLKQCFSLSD

B1: mCD40×FAP.LP62 (2+1 anti-mouse CD40×FAP bispecific antibody) (bispecific antibody)
chain: EVQLLESGGGLVQPGGSLRLSCAASGFTFSSRGMSWVRQAPGKCLEWVSFISSSGTYVYYADSVKGRFTISRDNSKNTLYLQMNSLRAEDTAVYYCARDLPRTGVYFGMDVWGQGTTVTVSSGGGGSGGGGSGGGGSGGGGSDIQMTQSPSSLSASVGDRVTITCRASQSIFNYLNWYQQKPGKAPKLLIYGASTLQSGVPSRFSGSGSGTDFTLTISSLQPEDFATYYCQESYSTPYTFGCGTKVEIK
B2: analog of RO7300490 (bispecific antibody, human IgG1, kappa, L234A L235A)
heavy 1: not shown
heavy 2: QVQLVQSGAEVKKPGASVKVSCKASGYSFTGYYIHWVRQAPGQSLEWMGRVIPNAGGTSYNQKFKGRVTLTVDKSISTAYMELSRLRSDDTAVYYCAREGIYWWGQGTTVTVSSASTKGPSVFPLAPSSKSTSGGTAALGCLVEDYFPEPVTVSWNSGALTSGVHTFPAVLQSSGLYSLSSVVTVPSSSLGTQTYICNVNHKPSNTKVDEKVEPKSCDKTHTCPPCPAPEAAGGPSVFLFPPKPKDTLMISRTPEVTCVVVDVSHEDPEVKFNWYVDGVEVHNAKTKPREEQYNSTYRVVSVLTVLHQDWLNGKEYKCKVSNKALGAPIEKTISKAKGQPREPQVCTLPPSRDELTKNQVSLSCAVKGFYPSDIAVEWESNGQPENNYKTTPPVLDSDGSFFLVSKLTVDKSRWQQGNVFSCSVMHEALHNHYTQKSLSLSPG
light 1: DIVMTQTPLSLSVTPGQPASISCRSSQSLVHSNGNTFLHWYLQKPGQSPQLLIYTVSNRFSGVPDRFSGSGSGTDFTLKISRVEAEDVGVYFCSQTTHVPWTFGGGTKVEIKRTVAAPSVFIFPPSDRKLKSGTASVVCLLNNFYPREAKVQWKVDNALQSGNSQESVTEQDSKDSTYSLSSTLTLSKADYEKHKVYACEVTHQGLSSPVTKSFNRGEC
light 2: QVQLVQSGAEVKKPGASVKVSCKASGYTLTDYNMDWVRQAPGQGLEWIGDIYPNTGGTIYNQKFKGRVTMTIDTSTSTVYMELSSLRSEDTAVYYCTRFRGIHYAMDYWGQGTTVTVSSASVAAPSVFIFPPSDEQLKSGTASVVCLLNNFYPREAKVQWKVDNALQSGNSQESVTEQDSKDSTYSLSSTLTLSKADYEKHKVYACEVTHQGLSSPVTKSFNRGEC
notes: Human IgG1 Fc with L234A, L235A, P329G; also called RO7300490 analog

Key:
[1] = biological target: T1, mouse CD40 on cells; assay: binding to mouse CD40-positive macrophages
[2] = biological target: T2, mouse FAP protein; assay: SPR
[3] = biological target: T3, mouse CD40 protein; assay: SPR
[4] = biological target: T1, mouse CD40 on cells; assay: cell-based or functional assay
[5] = biological target: T1, mouse CD40 on cells; assay: binding to mouse CD40-positive B cells
[6] = biological target: T4, mouse FAP on HEK cells; assay: binding to mouse FAP-positive HEK cells
[7] = biological target: T8, FcγRI (CD64) (UniProt P12314 16-288, limits assumed); assay: SPR, Biacore S200, antibody captured on Protein A chip, FcγR as analyte
T8 construct: also called FcγR1 (CD64); FcγR1
Protocol: Binding of CD40.9H3×FAP.LP62 and the analog of RO7300490 to various Fc gamma receptors (FcγR1 (CD64), FcγRIIIA (CD16a), FcγRIIIB (CD16b), FcγRIIA (CD32a), FcγRIIB (CD32b)) was determined in an analyte/capture assay in vitro. Briefly, an SPR assay was performed using a Biacore S200 with a Biacore Series S Protein A chip (Cytiva). All antibodies were prepared at 4.0 μg/ml in 1×HBS-EP+ running buffer (Cytiva) and captured onto flow cells 2, 3, and 4 through a 60 second contact time at 10 μl/min. An analyte series of the FcγRs (BMS In-House Produced) were prepared at 10,000 nM in 1×HBS-EP+ with eight, three-fold dilutions. Kinetic measurements were conducted with a 120 second association followed by a 120 second dissociation at 30 μl/min. Surface regeneration was preformed by 60 second contact time of 50 mM Glycine pH 1.5 solution (Cytiva) at 30 μl/min. Data was processed in Biacore Insight Evaluation Version 5 (Cytiva). Sensorgrams were double referenced and globally fit to a 1:1 Langmuir model were applicable. Where 1:1 model was not sufficient to describe the interaction (fast-on and fast-off rates), steady state equilibrium fitting was used to determine the equilibrium constant.

[8] = biological target: T9, human CD40 protein (human, UniProt P25942 21-193); assay: SPR
T9 construct: Protein used in SPR
Protocol: (§1) CD40.9H3×FAP.LP62 and an analog of RO7300490 (see SEQ ID NOs: 39-42) binding to human and cynomolgus (cyno) CD40 and FAP was evaluated by surface plasmon resonance (SPR) using human and cyno CD40 and FAP proteins. […] The rates of association and dissociation of CD40.9H3×FAP.LP62 and the analog of RO7300490 to human CD40 and FAP are summarized in Table 2.

[9] = biological target: T5, human FAP protein; assay: SPR
Protocol: as §1

[10] = biological target: T6, soluble FAP; assay: cell-based or functional assay
[11] = biological target: T7, human FAP on cells; assay: cell-based or functional assay
[12] = biological target: T6, soluble FAP; assay: cell-based or functional assay; remark: listed apart in the source

T9 sequence (P25942 21-193 limits assumed): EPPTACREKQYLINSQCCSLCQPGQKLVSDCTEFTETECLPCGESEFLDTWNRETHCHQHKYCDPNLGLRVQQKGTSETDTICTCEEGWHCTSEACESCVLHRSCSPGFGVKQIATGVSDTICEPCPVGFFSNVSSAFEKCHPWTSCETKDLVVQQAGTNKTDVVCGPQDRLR
T8 sequence (P12314 16-288 limits assumed): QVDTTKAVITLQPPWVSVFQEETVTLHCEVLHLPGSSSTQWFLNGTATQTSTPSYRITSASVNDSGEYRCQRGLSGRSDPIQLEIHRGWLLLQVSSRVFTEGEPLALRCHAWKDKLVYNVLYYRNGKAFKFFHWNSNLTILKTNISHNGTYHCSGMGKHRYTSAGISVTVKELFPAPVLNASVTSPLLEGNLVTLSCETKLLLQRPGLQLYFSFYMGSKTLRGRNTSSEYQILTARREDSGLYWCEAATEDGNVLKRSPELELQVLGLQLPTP

Binder | EC50 [1] [nM] | Kd [2] [nM] | Kd [3] [nM] | CCL22 secretion, murine BMDM + MC38-FAP co-culture, EC50 [4] [nM] | IL12p40 secretion, murine BMDM + MC38-FAP co-culture, EC50 [4] [nM] | EC50 [5] [nM] | EC50 [6] [nM] | Kd [7] [nM] | Kd [8] [nM] | koff [8] [s⁻¹] | kon [8] [M⁻¹ s⁻¹] | Kd [9] [nM] | koff [9] [s⁻¹] | kon [9] [M⁻¹ s⁻¹] | IL12p40 release, human DC + HFF1 co-culture, EC50, soluble FAP 120 ng/mL [10] [nM] | IL12p40 release, human DC + HFF1 co-culture, EC50, soluble FAP 480 ng/mL [10] [nM] | IL12p40 release, human DC + HFF1 co-culture, EC50, soluble FAP 0 ng/mL [11] [nM] | fold reduction in potency of IL12p40 secretion with 120 ng/mL soluble FAP [12] [fold] | fold reduction in potency of IL12p40 secretion with 480 ng/mL soluble FAP [12] [fold]
B1 | 7.3 | 3.4 | 45.8 | 1.02 | 1.43 | 12.1 | 3.17 |  |  |  |  |  |  |  |  |  |  |  | 
B2 |  |  |  |  |  |  |  | 2550 | 4.9 | 0.00555 | 1.13e+06 | 0.265 | 4.83e-05 | 182000 | 1.14 | 516 | 0.09 | 14.2 | 70.9
